From the Human Domainome abundance scans (Beltran et al. 2025)
± gives the uncertainty stated by the source.

B1: POU domain, class 3, transcription factor 2, residues 356 to 411; numbered along this chain, P20265 (parent)
chain: KKRTSIEVSVKGALESHFLKCPKPSAQEITSLADSLQLEKEVVRVWFCNRRQKEKR

Variants of: B1
Experiment: abundance fitness (aPCA) (normalised: wild type 0, dead -1); higher = more abundant; growth selection in yeast, the domain comes from the species named
Conditions: Homo sapiens

Row | Variant | abundance fitness
1 | KKRTSIEVSVKGALESHFLKCPKPSAQEITSLADSLQLEKEVVRVWNCNRRQKEKR [F47N] | -0.967 ± 0.38
2 | KKRTSIEVSVKGALESHFLKCPKPSAQEITSLADSLQLEKEVVRVWECNRRQKEKR [F47E] | -0.672 ± 0.17
3 | KKRTSIEVSVKGALESHFLKCPKPSAQEITSLADSLQLEKEVVRVWPCNRRQKEKR [F47P] | -0.941 ± 0.24
4 | KKRTSIEVSVKGALESHFLKCPKPSAQEITSLADSLQLEKEVVRVWGCNRRQKEKR [F47G] | -0.698 ± 0.14
5 | KKRTSIEVSVKGALESHFLKCPKPSAQEITSLADSLQLEKEVVRVWACNRRQKEKR [F47A] | -0.92 ± 0.15
6 | KKRTSIEVSVKGALESHFLKCPKPSAQEITSLADSLQLEKEVVRVWLCNRRQKEKR [F47L] | -0.722 ± 0.1
7 | KKRTSIEVSVKGALESHFLKCPKPSAQEITSLADSLQLEKEVVRVWDCNRRQKEKR [F47D] | -0.852 ± 0.37
8 | KKRTSIEVSVKGALESHFLKCPKPSAQEITSLADSLQLEKEVVRVWICNRRQKEKR [F47I] | -0.751 ± 0.21
9 | KKRTSIEVSVKGALESHFLKCPKPSAQEITSLADSLQLEKEVVRVWSCNRRQKEKR [F47S] | -0.871 ± 0.12
10 | KKRTSIEVSVKGALESHFLKCPKPSAQEITSLADSLQLEKEVVRVWVCNRRQKEKR [F47V] | -0.784 ± 0.13
11 | KKRTSIEVSVKGALESHFLKCPKPSAQEITSLADSLQLEKEVVRVWFCRRRQKEKR [N49R] | -0.135 ± 0.065
12 | KKRTSIEVSVKGALESHFLKCPKPSAQEITSLADSLQLEKEVVRVWFCLRRQKEKR [N49L] | -0.149 ± 0.08
13 | KKRTSIEVSVKGALESHFLKCPKPSAQEITSLADSLQLEKEVVRVWFCMRRQKEKR [N49M] | -0.197 ± 0.1
14 | KKRTSIEVSVKGALESHFLKCPKPSAQEITSLADSLQLEKEVVRVWFCERRQKEKR [N49E] | 0.066 ± 0.12
15 | KKRTSIEVSVKGALESHFLKCPKPSAQEITSLADSLQLEKEVVRVWFCDRRQKEKR [N49D] | 0.221 ± 0.2
16 | KKRTSIEVSVKGALESHFLKCPKPSAQEITSLADSLQLEKEVVRVWFCQRRQKEKR [N49Q] | -0.005 ± 0.088
17 | KKRTSIEVSVKGALESHFLKCPKPSAQEITSLADSLQLEKEVVRVWFCWRRQKEKR [N49W] | -0.18 ± 0.083
18 | KKRTSIEVSVKGALESHFLKCPKPSAQEITSLADSLQLEKEVVRVWFCYRRQKEKR [N49Y] | -0.396 ± 0.13
19 | KKRTSIEVSVKGALESHFLKCPKPSAQEITSLADSLQLEKEVVRVWFCARRQKEKR [N49A] | -0.239 ± 0.093
20 | KKRTSIEVSVKGALESHFLKCPKPSAQEITSLADSLQLEKEVVRVWFCVRRQKEKR [N49V] | -0.103 ± 0.12
21 | KKRTSIEVSVKGALESHFLKCPKPSAQEITSLADSLQLEKEVVRVWFCHRRQKEKR [N49H] | -0.08 ± 0.19
22 | KKRTSIEVSVKGALESHFLKCPKPSAQEITSLADSLQLEKEVVRVWFCTRRQKEKR [N49T] | -0.207 ± 0.097
23 | KKRTSIEVSVKGALESHFLKCPKPSAQEITSLADSLQLEKEVVRVWFCSRRQKEKR [N49S] | -0.137 ± 0.072
24 | KKRTSIEVSVKGALESHFLKCPKPSAQEITSLADSLQLEKEVVRVWFCIRRQKEKR [N49I] | -0.249 ± 0.17

Row | Variant | abundance fitness
25 | KKRTSIEVSVKGALESHFLKCPKPSAQEITSLADSLQLEKEVVRVWFCFRRQKEKR [N49F] | -0.515 ± 0.15
26 | KKRTSIEVSVKGALESHFLKCPKPSAQEITSLADSLQLEKEVVRVWFCCRRQKEKR [N49C] | -0.14 ± 0.11
27 | KKRTSIEVSVKGALESHFLKCPKPSAQEITSLADSLQLEKEVVRVWFCKRRQKEKR [N49K] | -0.056 ± 0.12
28 | KKRTSIEVSVKGALESHFLKCPKPSAQEITSLADSLQLEKEVVRVWFCGRRQKEKR [N49G] | -0.25 ± 0.09
29 | KKRTSIEVSVKGALESHFLKCPKPSAQEITSLADSLQLEKEVVRVEFCNRRQKEKR [W46E] | -0.946 ± 0.17
30 | KKRTSIEVSVKGALESHFLKCPKPSAQEITSLADSLQLEKEVVRVIFCNRRQKEKR [W46I] | -0.932 ± 0.19
31 | KKRTSIEVSVKGALESHFLKCPKPSAQEITSLADSLQLEKEVVRVGFCNRRQKEKR [W46G] | -0.92 ± 0.1
32 | KKRTSIEVSVKGALESHFLKCPKPSAQEITSLADSLQLEKEVVRVSFCNRRQKEKR [W46S] | -0.698 ± 0.1
33 | KKRTSIEVSVKGALESHFLKCPKPSAQEITSLADSLQLEKEVVRVCFCNRRQKEKR [W46C] | -0.826 ± 0.35
34 | KKRTSIEVSVKGALESHFLKCPKPSAQEITSLADSLQLEKEVVRVHFCNRRQKEKR [W46H] | -0.927 ± 0.23
35 | KKRTSIEVSVKGALESHFLKCPKPSAQEITSLADSLQLEKEVVRVMFCNRRQKEKR [W46M] | -0.922 ± 0.14
36 | KKRTSIEVSVKGALESHFLKCPKPSAQEITSLADSLQLEKEVVRVYFCNRRQKEKR [W46Y] | -0.648 ± 0.24
37 | KKRTSIEVSVKGALESHFLKCPKPSAQEITSLADSLQLEKEVVRVDFCNRRQKEKR [W46D] | -0.318 ± 0.38
38 | KKRTSIEVSVKGALESHFLKCPKPSAQEITSLADSLQLEKEVVRVNFCNRRQKEKR [W46N] | -0.896 ± 0.3
39 | KKRTSIEVSVKGALESHFLKCPKPSAQEITSLADSLQLEKEVVRVPFCNRRQKEKR [W46P] | -0.986 ± 0.15
40 | KKRTSIEVSVKGALESHFLKCPKPSAQEITSLADSLQLEKEVVRVRFCNRRQKEKR [W46R] | -0.805 ± 0.084
41 | KKRTSIEVSVKGALESHFLKCPKPSAQEITSLADSLQLEKEVVRVLFCNRRQKEKR [W46L] | -0.934 ± 0.091
42 | KKRTSIEVSVKGALESHFLKCPKPSAQEITSLADSLQLEKEVVRVQFCNRRQKEKR [W46Q] | -0.78 ± 0.16
43 | KKRTSIEVSVKGALESHFLKCPKPSAQEITSLADSLQLEKEVVRVKFCNRRQKEKR [W46K] | -0.845 ± 0.18
44 | KKRTSIEVSVKGALESHFLKCPKPSAQEITSLADSLQLEKEVVRVTFCNRRQKEKR [W46T] | -0.958 ± 0.17
45 | KKRTSIEVSVKGALESHFLKCPKPSAQEITSLADSLQLEKEVVRVFFCNRRQKEKR [W46F] | -0.393 ± 0.15
46 | KKRTSIEVSVKGALESHFLKCPKPSAQEITSLADSLQLEKEVVRVAFCNRRQKEKR [W46A] | -0.932 ± 0.13
47 | KKRTSIEVSVKGALESHFLKCPKPSAQEITSLADSLQLEKEVVRVVFCNRRQKEKR [W46V] | -0.933 ± 0.12
